Laboratory results taken from EP3222635A1.

Tests used:
[1] = molecular target: Soluble human P-selectin (human) (UniProt P16109); assay: SPR (SensiQ), antibody captured on protein G, soluble human P-selectin 100nM-1.56nM as analyte
[2] = molecular target: Soluble human P-selectin (human) (UniProt P16109); assay: SPR (SensiQ), reference G1

UniProt P16109, sequence (P16109 42-771 limits assumed): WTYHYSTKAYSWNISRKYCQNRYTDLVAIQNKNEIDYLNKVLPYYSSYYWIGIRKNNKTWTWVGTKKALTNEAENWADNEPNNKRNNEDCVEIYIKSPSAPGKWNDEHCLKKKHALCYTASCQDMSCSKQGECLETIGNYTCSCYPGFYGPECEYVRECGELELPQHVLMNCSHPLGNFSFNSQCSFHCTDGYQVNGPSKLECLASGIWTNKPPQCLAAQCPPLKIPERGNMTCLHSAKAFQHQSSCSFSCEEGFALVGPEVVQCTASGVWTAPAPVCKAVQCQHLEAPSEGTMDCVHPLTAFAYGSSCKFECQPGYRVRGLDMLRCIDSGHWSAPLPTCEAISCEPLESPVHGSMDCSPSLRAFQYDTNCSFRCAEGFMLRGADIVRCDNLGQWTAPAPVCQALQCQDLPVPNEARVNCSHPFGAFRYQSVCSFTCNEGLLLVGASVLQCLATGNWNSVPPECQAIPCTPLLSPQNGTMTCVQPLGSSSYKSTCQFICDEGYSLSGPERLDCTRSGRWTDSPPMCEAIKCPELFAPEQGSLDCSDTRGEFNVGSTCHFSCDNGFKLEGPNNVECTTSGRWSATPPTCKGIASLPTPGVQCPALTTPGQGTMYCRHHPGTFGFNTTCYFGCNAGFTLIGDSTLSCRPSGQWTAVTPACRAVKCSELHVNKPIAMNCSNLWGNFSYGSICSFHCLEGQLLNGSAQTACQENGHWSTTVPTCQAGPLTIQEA

| Kd [1] | koff [1] | kon [1] | Ka (association constant) higher than G1 [2] | improvement in the binding affinity compared to G1 [2] | Molecule |
| --- | --- | --- | --- | --- | --- |
| 8.94 nM | 0.056 s⁻¹ | 6.3e+06 M⁻¹ s⁻¹ | – | – | G1 mouse monoclonal anti-P-selectin antibody |
| 5.89 nM | 0.0131 s⁻¹ | 2.22e+06 M⁻¹ s⁻¹ | 64.7% | 34% | hSel001 humanized IgG2 anti-P-selectin antibody (antibody, from another filing, V domains shown) VH: QVQLVQSGAEVKKPGASVKVSCKVSGYTFTSYDINWVRQAPGKGLEWMGWIYPGDGSIKYNEKFKGRVTMTVDKSTDTAYMELSSLRSEDTAVYYCARRGEYGNYEGAMDYWGQGTLVTVSS VL: DIQMTQSPSSLSASVGDRVTITCKASQSVDYDGHSYMNWYQQKPGKAPKLLIYAASNLESGVPSRFSGSGSGTDFTLTISSLQPEDFATYYCQQSDENPLTFGGGTKVEIKR |
